Laboratory results reported in patent publication US20130331333A1 (HADASIT MEDICAL RESEARCH SERVICES AND DEVELOPMENT, published 2013).
Each block holds one binder with its values, some of them ahead of it.

B2: wild-type human protease-activated receptor 1 (wt hPar1) (receptor, UniProt P25116 42-425, looked up)
chain: SFLLRNPNDKYEPFWEDEEKNESGLTEYRLVSINKSSPLQKQLPAFISEDASGYLTSSWLTLFVPSVYTGVFVVSLPLNIMAIVVFILKMKVKKPAVVYMLHLATADVLFVSVLPFKISYYFSGSDWQFGSELCRFVTAAFYCNMYASILLMTVISIDRFLAVVYPMQSLSWRTLGRASFTCLAIWALAIAGVVPLLLKEQTIQVPGLNITTCHDVLNETLLEGYYAYYFSAFSAVFFFVPLIISTVCYVSIIRCLSSSAVANRSKKSRALFLSAAVFCIFIICFGPTNVLLIAHYSFLSHTSTTEAAYFAYLLCVCVSSISCCIDPLIYYYASSECQRYVYSILCCKESSDPSSYNSSGQLMASKMDTCSSNLNNSIYKKLLT
notes: whole, on cells; Tested as protein in cell lysates (pull-down, co-immunoprecipitation, antibody array)

Legend:
[1] = target: B2; test: cell lysates on GST-Etk-PH column, anti-PAR1 blot
Experimental: The IP was performed using anti-PAR1 (ATAP, Santa Cruz, Calif.). FIGS. 7B and 7C are photographs of gels showing peptide competition for PAR1 binding to GST-PH-Etk/Bmx.
GST fusion protein columns. Fusion proteins were purified from transformed Escherichia coli bacteria that had been stimulated with isopropyl-β-D-thio-galactopyranoside (IPTG) at a concentration of […]. Bacteria were lysed according to published procedures, and then immobilized on glutathione Sepharose beads (Pharmacia). Briefly, MDA-MB-435 cell lysates were applied to GST-PAR1C-tail or GST control columns. After 2 h binding periods to the designated protein/s cell lysates to the columns, a washing step was performed. The washes (×3) were carried out using a “wash buffer” including: 100 mM NaCL, 20 mM EDTA, 10 mM Tris, pH 8.0 and 1% Triton ×100. This step was performed in order to wash out all non-specific proteins, leaving the GST-PAR₁-C-tail column firmly bound to targeted cell lysate proteins. Next, elution of bound proteins was performed via the addition of gel “sample buffer” and appropriate boiling. The samples were run electrophoretically on SDS-PAGE gels, followed by immunoblotting with the indicated antibodies and ECL detection. GST-PH-Etk/Bmx. The PH domain in Etk/Bmx was bound to GST column as previously described (Chen R, et al. (2001) Nat Cell Biol. 3: 439-444). […]

[2] = target: T1, Etk/Bmx (epithelial tyrosine kinase), wild type (UniProt P51813 1-675); test: Etk/Bmx expressing cell lysates on GST-PAR2 C-tails
T1 construct: Plasmids after Tsai et al. 2000; also called wt-Etk
T1 sequence (looked up): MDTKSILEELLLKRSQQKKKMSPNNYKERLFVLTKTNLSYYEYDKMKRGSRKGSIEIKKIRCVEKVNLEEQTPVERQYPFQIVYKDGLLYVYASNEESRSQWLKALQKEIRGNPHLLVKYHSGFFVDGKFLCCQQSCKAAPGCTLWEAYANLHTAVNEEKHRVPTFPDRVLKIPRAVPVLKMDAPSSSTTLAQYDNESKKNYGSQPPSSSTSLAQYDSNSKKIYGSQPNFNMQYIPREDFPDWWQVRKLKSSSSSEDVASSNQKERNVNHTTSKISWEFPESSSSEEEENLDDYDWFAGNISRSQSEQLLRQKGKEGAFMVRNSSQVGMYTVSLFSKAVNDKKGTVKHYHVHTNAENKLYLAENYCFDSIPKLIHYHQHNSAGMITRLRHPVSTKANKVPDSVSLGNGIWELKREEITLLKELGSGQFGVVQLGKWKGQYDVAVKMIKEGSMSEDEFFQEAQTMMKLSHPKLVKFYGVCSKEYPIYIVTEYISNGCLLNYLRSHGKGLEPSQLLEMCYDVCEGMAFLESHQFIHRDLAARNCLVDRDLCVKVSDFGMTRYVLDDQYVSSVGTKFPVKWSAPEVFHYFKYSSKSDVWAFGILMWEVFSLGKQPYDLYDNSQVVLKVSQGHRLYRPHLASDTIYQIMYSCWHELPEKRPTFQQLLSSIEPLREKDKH

c-Yes = c-Yes (UniProt P07947 2-543); test: antibody array with MDA-MB-435 lysates before and after PAR1 activation, biotinylated anti-PAR1 detection
c-Yes, sequence (P07947 2-543 limits assumed): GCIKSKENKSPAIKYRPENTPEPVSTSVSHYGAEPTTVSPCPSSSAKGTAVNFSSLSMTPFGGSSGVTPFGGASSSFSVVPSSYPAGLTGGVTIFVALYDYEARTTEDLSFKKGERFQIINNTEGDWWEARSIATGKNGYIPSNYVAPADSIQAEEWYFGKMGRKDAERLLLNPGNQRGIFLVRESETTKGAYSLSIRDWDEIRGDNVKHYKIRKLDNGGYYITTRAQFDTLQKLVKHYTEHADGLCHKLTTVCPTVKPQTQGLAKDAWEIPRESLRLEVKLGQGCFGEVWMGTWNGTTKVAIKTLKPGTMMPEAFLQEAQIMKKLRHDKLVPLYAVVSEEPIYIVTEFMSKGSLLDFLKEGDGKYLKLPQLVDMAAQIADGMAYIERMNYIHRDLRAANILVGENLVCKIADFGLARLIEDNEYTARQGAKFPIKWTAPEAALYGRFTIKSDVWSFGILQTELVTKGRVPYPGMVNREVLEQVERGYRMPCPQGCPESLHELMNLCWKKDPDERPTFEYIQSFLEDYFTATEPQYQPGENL
Experimental: (§1) Antibody array: A custom-made antibody array (hypromatrix) containing thirty antibodies against various proteins was prepared (FIG. 1). The antibodies were immobilized on a membrane, each at a pre-determined position, while retaining their capabilities of recognizing and capturing antigens as well as antigen-associated proteins. MDA-MB-435 cells were activated for 10 min with thrombin (1 U/ml). Untreated or activated cells were lysed with Triton extraction solution: 15 mM Tris, pH 7.5, 120 mM NaCl, 25 mM KCl, 2 mM EGTA, 2 mM EDTA, 0.1 mM DTT, 0.5% Triton X-100, […] and 0.5 mM PMSF. Protein extract was incubated on pre-blocked membrane for 2 h at room temperature. The antibody array was washed with TBST and incubated with biotinylated PAR₁ antibody (ATAP) for 2 h at room temperature. The antibody array was washed again with TBST, and the membrane was incubated with HRP-conjugated streptavidin for 1 h. Protein-protein interactions were detected by ECL and exposure to X-ray film.
(§2) To detect the putative mediator(s) linking PAR1 to potential signaling proteins, custom-made antibody-array membranes were examined. Aggressive breast carcinoma MDA-MB-435 cells (with high hPar1 levels) were incubated with the antibody-array membranes before and after PAR₁ activation (15 minutes). […]

[3] = target: T1, Etk/Bmx (epithelial tyrosine kinase), …; test: as above
Experimental: as §1, §2

[4] = target: T2, Shc adaptor protein (66, 52 and 46 kDa isoforms) (human, UniProt P29353 1-583, limits assumed); test: association of Shc with PAR1 Y/A mutants (method not detailed)
T2 construct: Full-length endogenous protein in cell lysates; three isoforms detected together; also called Shc adapter protein
T2 sequence (looked up): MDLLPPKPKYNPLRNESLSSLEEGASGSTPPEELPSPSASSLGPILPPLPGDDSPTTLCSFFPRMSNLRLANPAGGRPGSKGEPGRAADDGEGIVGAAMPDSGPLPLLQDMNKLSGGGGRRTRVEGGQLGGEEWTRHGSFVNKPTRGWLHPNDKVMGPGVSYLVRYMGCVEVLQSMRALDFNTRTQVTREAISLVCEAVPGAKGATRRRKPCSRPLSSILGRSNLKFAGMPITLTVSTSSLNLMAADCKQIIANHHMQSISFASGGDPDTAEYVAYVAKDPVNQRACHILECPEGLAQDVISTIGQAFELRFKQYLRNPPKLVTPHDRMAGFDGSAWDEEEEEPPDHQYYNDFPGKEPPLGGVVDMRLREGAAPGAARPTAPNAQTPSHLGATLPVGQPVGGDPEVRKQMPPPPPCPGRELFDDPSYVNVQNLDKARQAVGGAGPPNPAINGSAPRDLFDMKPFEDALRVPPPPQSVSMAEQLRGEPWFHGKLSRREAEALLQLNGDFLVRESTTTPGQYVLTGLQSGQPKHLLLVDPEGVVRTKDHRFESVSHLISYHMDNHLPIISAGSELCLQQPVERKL

T7-tagged Etk/Bmx = target: T3, T7-tagged Etk/Bmx (UniProt P51813 1-675); test: anti-HA immunoprecipitation, anti-T7 blot
T3 construct: not shown: T7 tag
T3 sequence (looked up): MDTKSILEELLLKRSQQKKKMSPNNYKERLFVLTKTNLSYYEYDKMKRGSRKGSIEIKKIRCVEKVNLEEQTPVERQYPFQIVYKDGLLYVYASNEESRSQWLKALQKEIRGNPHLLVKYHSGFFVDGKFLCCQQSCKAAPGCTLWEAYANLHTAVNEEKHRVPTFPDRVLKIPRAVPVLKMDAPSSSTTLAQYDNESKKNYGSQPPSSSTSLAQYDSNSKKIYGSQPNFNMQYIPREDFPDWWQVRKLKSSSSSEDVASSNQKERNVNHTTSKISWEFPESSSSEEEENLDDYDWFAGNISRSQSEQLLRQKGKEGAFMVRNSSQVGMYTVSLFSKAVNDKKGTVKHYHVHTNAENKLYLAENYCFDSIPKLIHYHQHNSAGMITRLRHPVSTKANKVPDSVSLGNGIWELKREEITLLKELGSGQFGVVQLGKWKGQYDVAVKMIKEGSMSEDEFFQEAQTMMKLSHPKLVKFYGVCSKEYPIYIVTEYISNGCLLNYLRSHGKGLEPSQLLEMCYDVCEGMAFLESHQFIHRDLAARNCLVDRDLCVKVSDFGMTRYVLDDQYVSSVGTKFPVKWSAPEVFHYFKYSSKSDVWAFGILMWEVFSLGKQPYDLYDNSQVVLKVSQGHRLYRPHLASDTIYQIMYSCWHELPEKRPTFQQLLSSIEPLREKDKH

binding result [1]: binds
B1: GST-PH-Etk/Bmx (other, UniProt P51813 1-111, looked up)
chain: MDTKSILEELLLKRSQQKKKMSPNNYKERLFVLTKTNLSYYEYDKMKRGSRKGSIEIKKIRCVEKVNLEEQTPVERQYPFQIVYKDGLLYVYASNEESRSQWLKALQKEIR
notes: domain: PH domain; Made as in Chen et al. 2001; also called GST-Etk-PH; GST-Etk/Bmx; not shown: GST tag

binding result [2]: binds
Binder: SHDFRDHAKNALLCRSVRTVKQMQVSLTSKKHSRKSSSYSSSSTTVKTSY (other, human, UniProt P55085 348-397, looked up, domain: PAR2 C-tail; not shown: GST tag) [GST-PAR2 C-tail wt]

Binder: B2
binding result (c-Yes): binds
binding result [3]: binds

binding result [4]: binds
B3: Y381A hPar1 (receptor, human, UniProt P25116 42-425, looked up)
chain: SFLLRNPNDKYEPFWEDEEKNESGLTEYRLVSINKSSPLQKQLPAFISEDASGYLTSSWLTLFVPSVYTGVFVVSLPLNIMAIVVFILKMKVKKPAVVYMLHLATADVLFVSVLPFKISYYFSGSDWQFGSELCRFVTAAFYCNMYASILLMTVISIDRFLAVVYPMQSLSWRTLGRASFTCLAIWALAIAGVVPLLLKEQTIQVPGLNITTCHDVLNETLLEGYYAYYFSAFSAVFFFVPLIISTVCYVSIIRCLSSSAVANRSKKSRALFLSAAVFCIFIICFGPTNVLLIAHYSFLSHTSTTEAAYFAYLLCVCVSSISCCIDPLIYYYASSECQRAVYSILCCKESSDPSSYNSSGQLMASKMDTCSSNLNNSIYKKLLT
notes: whole, on cells; also called hPar1-Y381A

binding result [4]: binds
B4: Y381A & Y383A hPar1 double mutant (receptor, human, UniProt P25116 42-425, looked up)
chain: SFLLRNPNDKYEPFWEDEEKNESGLTEYRLVSINKSSPLQKQLPAFISEDASGYLTSSWLTLFVPSVYTGVFVVSLPLNIMAIVVFILKMKVKKPAVVYMLHLATADVLFVSVLPFKISYYFSGSDWQFGSELCRFVTAAFYCNMYASILLMTVISIDRFLAVVYPMQSLSWRTLGRASFTCLAIWALAIAGVVPLLLKEQTIQVPGLNITTCHDVLNETLLEGYYAYYFSAFSAVFFFVPLIISTVCYVSIIRCLSSSAVANRSKKSRALFLSAAVFCIFIICFGPTNVLLIAHYSFLSHTSTTEAAYFAYLLCVCVSSISCCIDPLIYYYASSECQRAVASILCCKESSDPSSYNSSGQLMASKMDTCSSNLNNSIYKKLLT
notes: whole, on cells; also called Y381A&383A hPar1

binding result [4]: binds
B5: Y383A hPar1 (receptor, human, UniProt P25116 42-425, looked up)
chain: SFLLRNPNDKYEPFWEDEEKNESGLTEYRLVSINKSSPLQKQLPAFISEDASGYLTSSWLTLFVPSVYTGVFVVSLPLNIMAIVVFILKMKVKKPAVVYMLHLATADVLFVSVLPFKISYYFSGSDWQFGSELCRFVTAAFYCNMYASILLMTVISIDRFLAVVYPMQSLSWRTLGRASFTCLAIWALAIAGVVPLLLKEQTIQVPGLNITTCHDVLNETLLEGYYAYYFSAFSAVFFFVPLIISTVCYVSIIRCLSSSAVANRSKKSRALFLSAAVFCIFIICFGPTNVLLIAHYSFLSHTSTTEAAYFAYLLCVCVSSISCCIDPLIYYYASSECQRYVASILCCKESSDPSSYNSSGQLMASKMDTCSSNLNNSIYKKLLT
notes: whole, on cells

binding result (T7-tagged Etk/Bmx): binds
B6: HA-tagged wt hPar1 (receptor, human, UniProt P25116 42-425, looked up)
chain: SFLLRNPNDKYEPFWEDEEKNESGLTEYRLVSINKSSPLQKQLPAFISEDASGYLTSSWLTLFVPSVYTGVFVVSLPLNIMAIVVFILKMKVKKPAVVYMLHLATADVLFVSVLPFKISYYFSGSDWQFGSELCRFVTAAFYCNMYASILLMTVISIDRFLAVVYPMQSLSWRTLGRASFTCLAIWALAIAGVVPLLLKEQTIQVPGLNITTCHDVLNETLLEGYYAYYFSAFSAVFFFVPLIISTVCYVSIIRCLSSSAVANRSKKSRALFLSAAVFCIFIICFGPTNVLLIAHYSFLSHTSTTEAAYFAYLLCVCVSSISCCIDPLIYYYASSECQRYVYSILCCKESSDPSSYNSSGQLMASKMDTCSSNLNNSIYKKLLT
notes: whole, on cells; Tested in lysates of transfected cells; also called HA-wt hPar1; HA-wthPar1; not shown: HA tag added downstream of the ATG start codon
